In PMC4041426, “Structural basis for binding the TREX2 complex to nuclear pores, GAL1 localisation and mRNA export” (Nucleic Acids Research, 2014):

T1: Sac3^753–805:Sus1B:Cdc31 complex (S. cerevisiae, UniProt P46674 753-805; Q6WNK7 1-96; P06704 1-161)
T1 construct: Sac3, S. cerevisiae, residues 753–805 (BC); Sus1, S. cerevisiae (the Sus1B chain); Cdc31, S. cerevisiae; also called BC sub-complex; source: E. coli BL21 (DE3) CodonPlus RIL; cells with co-expressed Sac3:Cdc31 mixed with cells with Sus1; copies: 1 + 1 + 1
T1 sequence 1: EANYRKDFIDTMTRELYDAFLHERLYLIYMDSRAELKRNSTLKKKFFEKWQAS
T1 sequence 2: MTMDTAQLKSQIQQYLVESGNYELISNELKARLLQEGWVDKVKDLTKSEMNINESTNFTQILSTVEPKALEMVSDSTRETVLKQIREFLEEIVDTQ
T1 sequence 3: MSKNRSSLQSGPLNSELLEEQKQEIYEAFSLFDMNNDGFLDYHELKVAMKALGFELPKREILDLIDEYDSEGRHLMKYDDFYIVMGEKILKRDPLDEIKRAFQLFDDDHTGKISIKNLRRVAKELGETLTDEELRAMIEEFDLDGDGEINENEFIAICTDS

T2: Sus1 (S. cerevisiae, UniProt Q6WNK7 1-96)
T2 construct: Sus1, S. cerevisiae; also called Sus1A; Sus1B; source: E. coli BL21 (DE3) CodonPlus RIL; in clarified lysate (assembly pull-down), purified within Sac3 complexes (crystals)
T2 sequence: T1 sequence 2

T3: Kap95 (yeast, UniProt Q06142 1-861)
T3 construct: Kap95 (protein import karyopherin), yeast; also called karyopherin Kap95; yeast Kap95
T3 sequence (looked up): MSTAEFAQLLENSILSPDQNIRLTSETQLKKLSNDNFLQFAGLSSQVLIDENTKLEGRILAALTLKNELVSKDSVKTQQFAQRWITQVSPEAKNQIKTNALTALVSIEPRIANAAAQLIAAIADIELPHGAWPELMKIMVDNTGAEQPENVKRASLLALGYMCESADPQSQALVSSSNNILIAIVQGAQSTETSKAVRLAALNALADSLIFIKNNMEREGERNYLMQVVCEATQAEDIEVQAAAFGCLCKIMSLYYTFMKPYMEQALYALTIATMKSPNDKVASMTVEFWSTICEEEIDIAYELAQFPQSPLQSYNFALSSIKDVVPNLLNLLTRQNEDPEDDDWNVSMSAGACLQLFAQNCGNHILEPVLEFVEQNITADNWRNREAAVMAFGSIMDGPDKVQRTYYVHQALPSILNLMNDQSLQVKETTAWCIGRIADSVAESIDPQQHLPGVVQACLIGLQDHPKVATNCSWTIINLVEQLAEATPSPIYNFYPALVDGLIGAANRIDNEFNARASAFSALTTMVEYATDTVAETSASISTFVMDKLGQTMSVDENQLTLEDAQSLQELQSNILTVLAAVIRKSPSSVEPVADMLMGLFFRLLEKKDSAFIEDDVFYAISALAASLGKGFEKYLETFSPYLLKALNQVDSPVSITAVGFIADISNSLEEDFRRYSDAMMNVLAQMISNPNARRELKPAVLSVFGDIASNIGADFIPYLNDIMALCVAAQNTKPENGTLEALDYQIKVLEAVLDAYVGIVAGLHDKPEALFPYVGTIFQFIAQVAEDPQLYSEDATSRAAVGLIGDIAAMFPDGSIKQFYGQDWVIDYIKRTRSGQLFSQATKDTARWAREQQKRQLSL

T4: Cdc31 (S. cerevisiae, UniProt P06704 1-161)
T4 construct: Cdc31, S. cerevisiae; source: E. coli BL21 (DE3) CodonPlus RIL, co-expressed with Sac3 fragments; in clarified lysate (assembly pull-down), purified within Sac3 complexes (crystals)
T4 sequence: T1 sequence 3

B1: GST-Nup1^191–385 (domain or fragment, S. cerevisiae, UniProt P20676 191-385, looked up)
chain: KNRSNRKRFHSQSKGTVWSANFEYDLSEYDAIQKKDNKDKEGNAGGDQKTSENRNNIKSSISNGNLATGPNLTSEIEDLRADINSNRLSNPQKNLLLKGPASTVAKTAPIQESFVPNSERSGTPTLKKNIEPKKDKESIVLPTVGFDFIKDNETPSKKTSPKATSSAGAVFKSSVEMGKTDKSTKTAEAPTLSFN
notes: source: E. coli BL21 (DE3) CodonPlus RIL; immobilised on Glutathione Sepharose 4B from clarified lysate; not shown: GST, N-terminal, kept
B2: Nup1^322–355 (domain or fragment, S. cerevisiae, UniProt P20676 322-355, looked up)
chain: PKKDKESIVLPTVGFDFIKDNETPSKKTSPKATS
notes: Residues 326–340 were built in the model; also called Nup1 fragment; source: E. coli BL21 (DE3) CodonPlus RIL, purified (Glutathione Sepharose, TEV release, Superdex75); not shown: GST, N-terminal, cleaved
B3: Sac3^757–787 (domain or fragment, S. cerevisiae, UniProt P46674 757-787, looked up)
chain: RKDFIDTMTRELYDAFLHERLYLIYMDSRAE
notes: source: E. coli BL21 (DE3) CodonPlus RIL, purified in complex with Sus1B
B4: Sac3^757–787:Sus1B (complex, S. cerevisiae)
chain 1: B3 chain
chain 2: T1 sequence 2
notes: Sus1, S. cerevisiae (the Sus1B chain); also called B sub-complex; Sac3:Sus1B; copies: 1 + 1
B5: Nup1^316–340 (domain or fragment, S. cerevisiae, UniProt P20676 316-340, looked up)
chain: LKKNIEPKKDKESIVLPTVGFDFIK
notes: Nup1, S. cerevisiae, residues 316–340; Residues 330–340 were built in the model; also called Nup1 fragment; source: E. coli BL21 (DE3) CodonPlus RIL, purified (Glutathione Sepharose, TEV release, Superdex75); not shown: GST, N-terminal, cleaved
B6: GST-Nup1^371–500 (domain or fragment, S. cerevisiae, UniProt P20676 371-500, looked up)
chain: DKSTKTAEAPTLSFNFSQKANKTKAVDNTVPSTTLFNFGGKSDTVTSASQPFKFGKTSEKSENHTESDAPPKSTAPIFSFGKQEENGDEGDDENEPKRKRRLPVSEDTNTKPLFDFGKTGDQKETKKGES
notes: as for B1
B7: Sac3^753–805 (domain or fragment, S. cerevisiae, UniProt P46674 753-805, looked up)
chain: T1 sequence 1
notes: Sac3, S. cerevisiae, residues 753–805 (BC); also called BC fragment; source: E. coli BL21 (DE3) CodonPlus RIL, purified in complex with Sus1B and Cdc31

Experiments:
Settings in all cases: both partners purified
[1] = target: T1, Sac3^753–805:Sus1B:Cdc31 complex; experiment: pull-down; GST-Nup fusion (or GST) immobilised on Glutathione Sepharose 4B from clarified bacterial lysate and washed with PBS-DTT; purified Sac3^CID complex, sub-complex, mutant variant or Kap95 added at 15.4 μM; 4°C, 1 h; SDS-PAGE and Coomassie staining
[2] = target: B3; experiment: crystal structure; Nup1^322–355 mixed 6:1 with Sac3^757–787:Sus1B (15 mg/ml); 2.2–2.35 M ammonium sulphate, 100 mM Na citrate pH 5.6; P3_(2)21, 3.0 Å
[3] = target: T2, Sus1; experiment: as above
[4] = target: B4; experiment: as above
[5] = target: B1; experiment: pull-down; GST-Nup fusion (or GST) immobilised on Glutathione Sepharose 4B from clarified bacterial lysate and washed with PBS-DTT; purified Sac3^CID complex, sub-complex, mutant variant or Kap95 added at 15.4 μM; 4°C, 1 h; SDS-PAGE and Coomassie staining
[6] = target: T1, Sac3^753–805:Sus1B:Cdc31 complex; experiment: crystal structure; Nup1^316–340 mixed 7:1 with Sac3^753–805:Sus1B:Cdc31 (14.6 mg/ml); 16% PEG600, 2% PEG 1K, 10% glycerol, 100 mM MES pH 6.0; P2_(1), 2.6 Å
[7] = target: T3, Kap95; experiment: pull-down; GST-Nup fusion (or GST) immobilised on Glutathione Sepharose 4B from clarified bacterial lysate and washed with PBS-DTT; purified Sac3^CID complex, sub-complex, mutant variant or Kap95 added at 15.4 μM; 4°C, 1 h; SDS-PAGE and Coomassie staining
[8] = target: T2, Sus1; experiment: crystal structure; Nup1^316–340 mixed 7:1 with Sac3^753–805:Sus1B:Cdc31 (14.6 mg/ml); 16% PEG600, 2% PEG 1K, 10% glycerol, 100 mM MES pH 6.0; P2_(1), 2.6 Å
[9] = target: T4, Cdc31; experiment: as above

Binder: B1
- binding result [1]: binds

Binder: B2
- binding result [2]: binds
- binding result [3]: binds
- binding result [4]: binds

Binder: B3
- binding result [3]: binds

Binder: B4
- binding result [5]: binds

Binder: B5
- binding result [6]: binds

Binder: B6
- binding result [7]: binds

Binder: B7
- binding result [8]: binds
- binding result [9]: binds
